# Data published in publication PMC4315244 (The Journal of Cell Biology, 2015).
# B1: Nup159-QT4–5-Linker-H1 (domain or fragment, S. cerevisiae, UniProt P40477 1150-1244, looked up)
# chain: VKKEAVDNGLQTEPVETCNFSVQTFEGDENYLAEQCKPKQLKEYYTSAKVSNIPFVSQNSTLRLIESTFQTVEAEFTVLMENIRNMDTFFTDQSS
# B2: Flag-Nsp1C (domain or fragment)
# chain: not shown
# B3: Nup159C (domain or fragment, S. cerevisiae, UniProt P40477 1082-1460, looked up)
# chain: EDINTDELPHGGEAFKAREVSASADFDVQTSLEDNYAESGIQTDLSESSKENEVQTDAIPVKHNSTQTVKKEAVDNGLQTEPVETCNFSVQTFEGDENYLAEQCKPKQLKEYYTSAKVSNIPFVSQNSTLRLIESTFQTVEAEFTVLMENIRNMDTFFTDQSSIPLVKRTVRSINNLYTWRIPEAEILLNIQNNIKCEQMQITNANIQDLKEKVTDYVRKDIAQITEDVANAKEEYLFLMHFDDASSGYVKDLSTHQFRMQKTLRQKLFDVSAKINHTEELLNILKLFTVKNKRLDDNPLVAKLAKESLARDGLLKEIKLLREQVSRLQLEEKGKKASSFDASSSITKDMKGFKVVEVGLAMNTKKQIGDFFKNLNMAK
# B4: Nsp1C (domain or fragment)
# chain: not shown
# Columns and labels:
# SEC-MALS = target: the molecule itself; assay: SEC-MALS
# Nup82 (of the …) = target: Nup82 (of the Nup82–Nup159tail–Flag-Nsp1C complex) (S. cerevisiae, UniProt P40368 1-713); assay: SEC-MALS
# Nup82 (of the Nup82–Nup159tail–Flag-Nsp1C complex), sequence (P40368 whole entry, one chain of several): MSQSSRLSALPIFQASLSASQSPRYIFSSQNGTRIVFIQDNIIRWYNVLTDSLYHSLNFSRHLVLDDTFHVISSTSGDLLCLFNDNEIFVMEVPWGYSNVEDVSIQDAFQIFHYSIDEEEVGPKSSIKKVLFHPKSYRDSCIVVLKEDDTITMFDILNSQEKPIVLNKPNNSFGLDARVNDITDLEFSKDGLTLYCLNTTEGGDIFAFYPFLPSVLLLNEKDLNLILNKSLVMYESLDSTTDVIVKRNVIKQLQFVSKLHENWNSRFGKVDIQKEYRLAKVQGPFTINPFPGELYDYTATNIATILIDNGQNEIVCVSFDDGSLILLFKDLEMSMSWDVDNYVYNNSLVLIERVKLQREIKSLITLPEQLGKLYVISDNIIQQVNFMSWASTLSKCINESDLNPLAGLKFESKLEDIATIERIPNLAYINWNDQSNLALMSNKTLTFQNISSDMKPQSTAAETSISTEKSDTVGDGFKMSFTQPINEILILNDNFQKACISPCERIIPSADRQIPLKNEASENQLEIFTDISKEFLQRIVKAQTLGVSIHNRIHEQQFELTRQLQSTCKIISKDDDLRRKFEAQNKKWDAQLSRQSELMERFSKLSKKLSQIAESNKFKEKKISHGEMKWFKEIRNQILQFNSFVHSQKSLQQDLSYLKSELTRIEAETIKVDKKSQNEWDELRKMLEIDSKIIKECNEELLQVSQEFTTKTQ
# Nup82-Flag-TEV-ProtA = Nup82-Flag-TEV-ProtA (S. cerevisiae, UniProt P40368 1-713); assay: quantitative targeted mass spectrometry
# Nup82-Flag-TEV-ProtA, sequence (P40368 whole entry): as the sequence (P40368 whole entry, one chain of several) above
# AUC + SEC = target: the molecule itself; assay: AUC + SEC
binder,measurement,setting,value
B1,stoichiometry N,SEC-MALS,4
B2,stoichiometry N,Nup82 (of the …),1
B3,stoichiometry N,Nup82-Flag-TEV-ProtA,1
same,stoichiometry N,AUC + SEC,2
B4,stoichiometry N,Nup82-Flag-TEV-ProtA,1
